± gives the uncertainty stated by the source.
B1: Double-stranded RNA-binding protein Staufen homolog 1, residues 183 to 249; numbered along this chain, O95793 (parent)
chain: KSEISQVFEIALKRNLPVNFEVARESGPPHMKNFVTKVSVGEFVGEGEGKSKKISKKNAAIAVLEEL

Variants of: B1
Experiment: abundance fitness (aPCA) (normalised: wild type 0, dead -1); higher = more abundant; growth selection in yeast, the domain comes from the species named
Conditions: Homo sapiens
For G45M, the abundance fitness was -0.585 ± 0.072. Work on E42P yielded an abundance fitness of 0.053 ± 0.047. Work on E42G yielded an abundance fitness of 0.011 ± 0.046. For E42Q, the abundance fitness was -0.05 ± 0.05. With E42K the abundance fitness was -0.046 ± 0.057. Variant K57S has an abundance fitness of -0.43 ± 0.32. Variant I54F has an abundance fitness of -0.661 ± 0.12. I54R gave an abundance fitness of -0.23 ± 0.033. With I54H the abundance fitness was -0.221 ± 0.075. In the case of I54K, the abundance fitness is reported as -0.081 ± 0.049. Work on I54T yielded an abundance fitness of -0.132 ± 0.049. Variant I54D has an abundance fitness of -0.04 ± 0.072. I54V showed an abundance fitness of -0.075 ± 0.038. I54Y gave an abundance fitness of -0.642 ± 0.084. Variant I54M has an abundance fitness of -0.051 ± 0.047. Work on V18N yielded an abundance fitness of -0.906 ± 0.14. Variant V18K has an abundance fitness of -0.562 ± 0.093. For V18W, the abundance fitness was -0.861 ± 0.096. With V18S the abundance fitness was -0.465 ± 0.065. Variant V18Y has an abundance fitness of -0.739 ± 0.13. Work on V40I yielded an abundance fitness of -0.514 ± 0.072. V40A showed an abundance fitness of -0.501 ± 0.051. Variant V40P has an abundance fitness of -0.442 ± 0.057. V40D gave an abundance fitness of -0.577 ± 0.08. With V63N the abundance fitness was -0.521 ± 0.08. In the case of V63P, the abundance fitness is reported as -0.577 ± 0.057. V63W showed an abundance fitness of -0.818 ± 0.07. For V63F, the abundance fitness was -0.829 ± 0.17. V63G gave an abundance fitness of -0.482 ± 0.039. In the case of V63L, the abundance fitness is reported as -0.143 ± 0.045. In the case of V63M, the abundance fitness is reported as -0.239 ± 0.073. Variant V63H has an abundance fitness of -0.858 ± 0.11. Work on S39V yielded an abundance fitness of -0.038 ± 0.046. Work on S39N yielded an abundance fitness of -0.138 ± 0.069. Work on S39L yielded an abundance fitness of -0.267 ± 0.041. With S39H the abundance fitness was -0.081 ± 0.066. S39R showed an abundance fitness of 0.029 ± 0.035. In the case of A62C, the abundance fitness is reported as -0.223 ± 0.099. Work on A62R yielded an abundance fitness of -0.121 ± 0.047. A62D showed an abundance fitness of -0.185 ± 0.072. For A62H, the abundance fitness was -0.242 ± 0.098. Work on A62F yielded an abundance fitness of -0.787 ± 0.23. A62Q showed an abundance fitness of -0.086 ± 0.055. Variant E25Q has an abundance fitness of 0.021 ± 0.051. Work on E25Y yielded an abundance fitness of -0.151 ± 0.065. Variant E25P has an abundance fitness of -0.209 ± 0.055. Variant E25V has an abundance fitness of -0.025 ± 0.043. Variant E25G has an abundance fitness of -0.075 ± 0.045. For E25M, the abundance fitness was -0.011 ± 0.048. Variant E25C has an abundance fitness of -0.104 ± 0.068. M31V gave an abundance fitness of -0.099 ± 0.042. Work on M31L yielded an abundance fitness of -0.098 ± 0.035. Variant M31F has an abundance fitness of -0.263 ± 0.059. Work on M31Q yielded an abundance fitness of 0.049 ± 0.044. In the case of K32M, the abundance fitness is reported as -0.178 ± 0.061. For K32R, the abundance fitness was -0.052 ± 0.045. K32W showed an abundance fitness of -0.483 ± 0.083. For K32S, the abundance fitness was -0.138 ± 0.054. With K32F the abundance fitness was -0.516 ± 0.093. For K32N, the abundance fitness was -0.192 ± 0.088. With F34Y the abundance fitness was 0.038 ± 0.07. F34Q showed an abundance fitness of -0.447 ± 0.049. For F34N, the abundance fitness was -0.468 ± 0.085. F34K showed an abundance fitness of -0.725 ± 0.071. With G41F the abundance fitness was -1.18 ± 0.21. For G41C, the abundance fitness was -0.911 ± 0.14. With G41Q the abundance fitness was -0.979 ± 0.13. In the case of G41N, the abundance fitness is reported as -0.853 ± 0.2. G41E gave an abundance fitness of -0.611 ± 0.074. Variant T36I has an abundance fitness of -1.1 ± 0.095. With T36R the abundance fitness was -0.768 ± 0.042. T36N showed an abundance fitness of -0.674 ± 0.11. T36F showed an abundance fitness of -1.38 ± 0.32. T36Q gave an abundance fitness of -0.548 ± 0.059. For T36W, the abundance fitness was -1.12 ± 0.1. In the case of T36V, the abundance fitness is reported as -0.684 ± 0.049. T36D showed an abundance fitness of -0.6 ± 0.1. Variant T36Y has an abundance fitness of -0.449 ± 0.12. T36K showed an abundance fitness of -0.689 ± 0.075. For E3C, the abundance fitness was -0.205 ± 0.064. For E3F, the abundance fitness was -0.177 ± 0.07. Variant E3P has an abundance fitness of -0.023 ± 0.07. E3L showed an abundance fitness of -0.231 ± 0.043. Variant E3M has an abundance fitness of -0.509 ± 0.055. E3K showed an abundance fitness of -0.194 ± 0.072. E3G showed an abundance fitness of -0.551 ± 0.04. For E3Y, the abundance fitness was -0.098 ± 0.079. Work on V35W yielded an abundance fitness of -0.186 ± 0.051. Work on V35A yielded an abundance fitness of -0.256 ± 0.039. For V35D, the abundance fitness was -0.511 ± 0.08. Variant V35E has an abundance fitness of -0.393 ± 0.042. In the case of L12C, the abundance fitness is reported as -0.06 ± 0.099. In the case of L12A, the abundance fitness is reported as 0.111 ± 0.069. Variant L12Q has an abundance fitness of 0.01 ± 0.17. For L12P, the abundance fitness was -0.645 ± 0.12. In the case of L12W, the abundance fitness is reported as -0.063 ± 0.096. L12T gave an abundance fitness of -0.155 ± 0.11. In the case of K56F, the abundance fitness is reported as -0.476 ± 0.11. Variant K56L has an abundance fitness of -0.36 ± 0.061. Variant K56M has an abundance fitness of -0.35 ± 0.1. Work on K56D yielded an abundance fitness of -0.661 ± 0.18. K56I gave an abundance fitness of -0.127 ± 0.19. I61W gave an abundance fitness of -0.624 ± 0.076. Variant I61R has an abundance fitness of 0.002 ± 0.04. I61F gave an abundance fitness of -0.39 ± 0.1. Work on I61G yielded an abundance fitness of -0.184 ± 0.04. I61T showed an abundance fitness of -0.292 ± 0.07. Variant I61D has an abundance fitness of -0.53 ± 0.097. Work on I61S yielded an abundance fitness of -0.045 ± 0.048. Work on I61L yielded an abundance fitness of -0.061 ± 0.044. In the case of S2I, the abundance fitness is reported as -1.02 ± 0.26. In the case of S2P, the abundance fitness is reported as -0.328 ± 0.051. In the case of S2F, the abundance fitness is reported as -0.709 ± 0.098. Variant S2E has an abundance fitness of -0.381 ± 0.082. Variant S2A has an abundance fitness of -0.41 ± 0.051. Work on S2Q yielded an abundance fitness of -0.305 ± 0.076. For S2G, the abundance fitness was -0.136 ± 0.052. For K50W, the abundance fitness was -0.221 ± 0.051. In the case of K50F, the abundance fitness is reported as -0.406 ± 0.081. K50I gave an abundance fitness of -0.145 ± 0.065. K50V gave an abundance fitness of -0.127 ± 0.045. For K50Q, the abundance fitness was -0.036 ± 0.051. Variant K50G has an abundance fitness of -0.184 ± 0.046. For A59L, the abundance fitness was -0.806 ± 0.059. Variant A59K has an abundance fitness of -0.717 ± 0.08. In the case of A59H, the abundance fitness is reported as -1.04 ± 0.19. For A59W, the abundance fitness was -0.937 ± 0.066. Work on K13D yielded an abundance fitness of -0.327 ± 0.085. Work on K13M yielded an abundance fitness of -0.213 ± 0.09. Work on K13Q yielded an abundance fitness of -0.079 ± 0.069. In the case of K13P, the abundance fitness is reported as -0.528 ± 0.085. For K13T, the abundance fitness was -0.246 ± 0.079. For K13S, the abundance fitness was -0.194 ± 0.049. With K13A the abundance fitness was -0.019 ± 0.056. K13W gave an abundance fitness of -0.59 ± 0.074. K13I gave an abundance fitness of -0.26 ± 0.096. In the case of K13E, the abundance fitness is reported as -0.183 ± 0.072. K52G gave an abundance fitness of -0.603 ± 0.046. For K52Q, the abundance fitness was -0.318 ± 0.064. For K52F, the abundance fitness was -0.481 ± 0.082. K52T showed an abundance fitness of -0.52 ± 0.053. With K52A the abundance fitness was -0.125 ± 0.043. For K52D, the abundance fitness was -0.587 ± 0.067. In the case of H30W, the abundance fitness is reported as -0.365 ± 0.064. H30E gave an abundance fitness of -0.037 ± 0.058. In the case of H30Y, the abundance fitness is reported as -0.208 ± 0.054. In the case of H30C, the abundance fitness is reported as -0.207 ± 0.066. In the case of H30M, the abundance fitness is reported as -0.115 ± 0.06. With H30P the abundance fitness was -0.221 ± 0.046. H30F gave an abundance fitness of -0.278 ± 0.056. For H30I, the abundance fitness was -0.288 ± 0.066. Variant L64S has an abundance fitness of -0.475 ± 0.043. L64F gave an abundance fitness of -1.15 ± 0.16. In the case of L64P, the abundance fitness is reported as -0.454 ± 0.053. In the case of L64D, the abundance fitness is reported as -0.492 ± 0.075. L64R showed an abundance fitness of -0.517 ± 0.042. Work on L64E yielded an abundance fitness of -0.433 ± 0.055. Q6P gave an abundance fitness of -0.697 ± 0.038. Q6D gave an abundance fitness of -0.435 ± 0.033. Q6G showed an abundance fitness of -0.634 ± 0.028. Q6H gave an abundance fitness of -0.415 ± 0.034. S55C gave an abundance fitness of -0.535 ± 0.091. Variant S55M has an abundance fitness of -0.931 ± 0.074. S55N showed an abundance fitness of -0.8 ± 0.096. Work on E9T yielded an abundance fitness of -0.197 ± 0.048. With E9V the abundance fitness was -0.517 ± 0.038. For E9R, the abundance fitness was -0.232 ± 0.036.

From the Human Domainome abundance scans (Beltran et al. 2025)
